The target of the assay is T1, recombinant human NiG (human, UniProt Q9NQC3 186-1004).
T1 construct: Recombinant fragment, amine-coupled to a CM5 chip; also called hNiG; human NiG-fragment of NogoA
T1 sequence: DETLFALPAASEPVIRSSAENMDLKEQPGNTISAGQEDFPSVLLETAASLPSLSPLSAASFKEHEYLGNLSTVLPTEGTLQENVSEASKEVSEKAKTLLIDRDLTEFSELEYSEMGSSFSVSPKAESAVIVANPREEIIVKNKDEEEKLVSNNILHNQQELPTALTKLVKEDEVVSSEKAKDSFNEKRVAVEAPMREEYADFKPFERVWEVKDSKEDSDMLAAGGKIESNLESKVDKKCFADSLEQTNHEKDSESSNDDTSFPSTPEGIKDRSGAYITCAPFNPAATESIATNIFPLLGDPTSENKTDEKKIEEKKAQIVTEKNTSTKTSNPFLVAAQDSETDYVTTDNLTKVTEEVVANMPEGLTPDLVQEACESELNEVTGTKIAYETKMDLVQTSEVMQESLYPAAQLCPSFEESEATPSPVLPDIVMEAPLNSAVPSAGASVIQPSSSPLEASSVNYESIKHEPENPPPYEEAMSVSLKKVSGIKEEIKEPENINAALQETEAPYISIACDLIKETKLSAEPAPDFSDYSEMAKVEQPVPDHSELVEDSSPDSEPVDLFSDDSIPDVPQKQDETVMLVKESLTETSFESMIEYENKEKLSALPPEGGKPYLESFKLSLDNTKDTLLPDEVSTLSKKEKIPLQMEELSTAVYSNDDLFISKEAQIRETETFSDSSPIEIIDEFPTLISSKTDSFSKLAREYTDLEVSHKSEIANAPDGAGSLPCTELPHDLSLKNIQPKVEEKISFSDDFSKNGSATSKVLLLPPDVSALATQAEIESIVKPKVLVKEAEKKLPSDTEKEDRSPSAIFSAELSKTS
In words: SPR (BIAcore), recombinant human NiG immobilised on a CM5 chip. As to the method: The affinity of the mouse 6A3-IgG1 mAb, 6A3-IgG4 mAb, and of the 6A3 Fab were measured by surface plasmon resonance (SPR) using a BIAcore 2000 optical biosensor (Biacore, Uppsala, Sweden) according to the manufacture's instructions. Recombinant human NIG was covalently immobilized on a flow cell of a CM5 sensor chip using amine-coupling chemistry. Briefly; the carboxymethlyladed dextran matrix was activated by injecting 35 μl of a solution containing 0.025M NHS and 0.1M EDC. […] The deactivation of the remaining NHS-ester group was performed by injection of 35 μl of 1M ethanolamine hydrochloride (pH 8.5). The surface of the sensor chip was regenerated by injecting 5 μl 0.1M HCl. […] After each injection, the sensor chip surface was regenerated with the injection of 10 μl 0.1M HCl without loss of binding activity on the surface. The kinetic constants, ka and kd and the affinity constants KA and KD were evaluated using the BIAevaluations 3.0 software supplied by the manufacturer.
Affinity measurement in BIAcore: The kinetic and the affinity binding constants of the mouse 6A3-IgG1 mAb, 6A3-IgG4 mAb, and of the 6A3 derived monovalent Fab fragment to recombinant human NogoA were measured in real time using surface plasmon resonance (SPR) technology (Biacore). […]
In general terms: SPR reads the build-up and loss of mass on a sensor chip optically.

Consider two molecules from US20110027284A1 (Novartis, published 2011).

For orientation: Kd means the free concentration of one partner at which half of the binding sites on the other are occupied at equilibrium, for simple one-to-one binding.

B1: 6A3-IgG4 mAb (antibody, V domains shown)
VH: EVQLVESGGGLVQPGGSLRLSCAASGFTFSNYWMSWVRQAPGKGLEWVATIKQDGSQKNYVDSVKGRFTISRDNAKNSLYLRLNSLRAEDTAVYYCATELFDLWGRGSLVTVSS
VL: EIVLTQSPATLSLSPGERATLSCRASQSVSSYLAWYQQKPGQAPRLLIYDASNRATGIPARFSGSGSGTDFTLTISSLEPEDFAVYYCQQRSNWPITFGQGTKLEIKR
notes: Recombinant human IgG4/kappa made in SP2/0 cells; also called 6A3-Ig4; 6A3-Ab
Turning to B1, the Kd turned out to be 0.14 nM.

B2: 6A3 Fab monovalent fragment with his-tag (Fab, V domains shown, not shown: a dimerising Fc or GST; small tags and cut ends)
VH: EVQLVESGGGLVQPGGSLRLSCAASGFTFSNYWMSWVRQAPGKGLEWVATIKQDGSQKNYVDSVKGRFTISRDNAKNSLYLRLNSLRAEDTAVYYCATELFDLWGRGSLVTVSS
VL: EIVLTQSPATLSLSPGERATLSCRASQSVSSYLAWYQQKPGQAPRLLIYDASNRATGIPARFSGSGSGTDFTLTISSLEPEDFAVYYCQQRSNWPITFGQGTRLEIK
modifications: A his-tag is present, but its chain and position are not stated, so it is left out.
notes: Made in E. coli; also called 6A3 derived monovalent Fab fragment; copies: 1 + 1
Take B2: the Kd was 1.1 nM.
